Test results reported in patent publication US20140294817A1.

Assays:
Fcγ-receptor I (mice) = Fcγ-receptor I (mice) (UniProt P26151); assay: flow cytometry saturation binding on HeLa cells expressing RFP-tagged FcγRI (FIG. 61A, right panel)
Fcγ-receptor III (mice) = Fcγ-receptor III (mice) (UniProt P08508); assay: flow cytometry saturation binding on HeLa cells expressing RFP-tagged FcγRIII (FIG. 61C, right panel)
Fcγ-receptor IV (mice) = assay: flow cytometry saturation binding on HeLa cells expressing RFP-tagged FcγRIV (FIG. 61D, right panel)
Chain of Fcγ-receptor IV (mice) (A0A0B4J1G0 21-249): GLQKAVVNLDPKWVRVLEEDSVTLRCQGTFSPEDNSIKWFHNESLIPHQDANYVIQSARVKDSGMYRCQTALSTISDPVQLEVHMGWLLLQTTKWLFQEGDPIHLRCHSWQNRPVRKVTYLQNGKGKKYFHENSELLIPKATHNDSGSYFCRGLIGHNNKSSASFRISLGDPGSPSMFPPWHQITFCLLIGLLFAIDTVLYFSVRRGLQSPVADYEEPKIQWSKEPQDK

Fcγ-receptor IIb (mice) = Fcγ-receptor IIb (mice) (UniProt P08101); assay: flow cytometry saturation binding on HeLa cells expressing RFP-tagged FcγRIIb (FIG. 61B, right panel)
Chain of Fcγ-receptor IIb (mice) (P08101 30-330): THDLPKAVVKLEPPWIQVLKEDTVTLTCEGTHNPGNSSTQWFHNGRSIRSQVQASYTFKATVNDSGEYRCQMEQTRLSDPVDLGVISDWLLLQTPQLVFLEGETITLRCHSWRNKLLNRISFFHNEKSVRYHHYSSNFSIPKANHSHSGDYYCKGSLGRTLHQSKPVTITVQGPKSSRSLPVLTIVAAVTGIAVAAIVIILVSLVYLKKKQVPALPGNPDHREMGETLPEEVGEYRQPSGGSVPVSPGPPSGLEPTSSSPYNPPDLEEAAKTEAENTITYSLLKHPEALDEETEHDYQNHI

Chain of Fcγ-receptor III (mice) (P08508 31-261): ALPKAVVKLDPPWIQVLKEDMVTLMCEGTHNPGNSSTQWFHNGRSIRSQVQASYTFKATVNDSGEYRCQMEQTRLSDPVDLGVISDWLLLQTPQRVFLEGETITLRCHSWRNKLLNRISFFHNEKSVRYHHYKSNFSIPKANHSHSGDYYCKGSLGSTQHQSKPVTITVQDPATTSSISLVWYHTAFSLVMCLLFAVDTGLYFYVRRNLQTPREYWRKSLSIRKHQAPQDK
Chain of Fcγ-receptor I (mice) (P26151 25-404): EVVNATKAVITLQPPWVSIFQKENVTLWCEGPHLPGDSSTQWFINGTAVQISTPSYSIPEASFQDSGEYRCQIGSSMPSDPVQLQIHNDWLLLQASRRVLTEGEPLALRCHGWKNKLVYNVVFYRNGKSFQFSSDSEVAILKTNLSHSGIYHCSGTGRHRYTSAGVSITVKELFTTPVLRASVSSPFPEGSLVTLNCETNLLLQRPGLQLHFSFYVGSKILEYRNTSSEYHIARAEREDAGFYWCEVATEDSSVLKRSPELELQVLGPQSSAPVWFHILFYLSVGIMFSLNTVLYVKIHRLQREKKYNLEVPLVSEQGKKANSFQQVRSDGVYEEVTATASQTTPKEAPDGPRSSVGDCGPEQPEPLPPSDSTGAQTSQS

Kd (Fcγ-receptor I (mice)): 201 nM | Kd (Fcγ-receptor III (mice)): 2330 nM | Kd (Fcγ-receptor IV (mice)): 1220 nM | Kd (Fcγ-receptor IIb (mice)): 609 nM
Substance: whole rabbit IgG (antibody)
